Measurements from article PMC6125123.

Biological target: HA-K^b (H-2K^b heavy chain with an N-terminal HA tag, no GFP) (mus musculus)
Experiment: two-hybrid antibody micropattern assay (co-capture on live cells, confocal fluorescence microscopy); HA-tagged bait captured on printed anti-HA (12CA5) micropatterns on glass; GFP-tagged prey read out; co-transduced STF1 cells, 25°C overnight, then shifted to 37°C for 3-4 hr to dissociate …; no peptide

Sequence of HA-K^b (H-2K^b heavy chain with an N-terminal HA tag, no GFP) (mus musculus) (P01901 22-369): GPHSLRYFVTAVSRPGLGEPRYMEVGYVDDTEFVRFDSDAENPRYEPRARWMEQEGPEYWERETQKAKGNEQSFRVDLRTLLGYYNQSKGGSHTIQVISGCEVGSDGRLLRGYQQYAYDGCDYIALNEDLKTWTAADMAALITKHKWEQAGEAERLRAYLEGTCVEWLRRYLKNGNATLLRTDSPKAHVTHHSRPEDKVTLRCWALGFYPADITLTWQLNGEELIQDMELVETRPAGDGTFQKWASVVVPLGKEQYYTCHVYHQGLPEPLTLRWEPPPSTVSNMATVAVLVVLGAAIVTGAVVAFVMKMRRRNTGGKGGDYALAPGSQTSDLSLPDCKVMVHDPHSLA

ratio of GFP fluorescence intensity on pattern elements over total fluorescence intensity (background 1.1): 1.3
Substance: K^b-GFP (H-2K^b heavy chain with GFP fused to the cytoplasmic tail, no HA tag) (natural protein)
